Data reported in publication PMC12055985 (Nature Communications, 2025).

B1: HSV-2 gD (aa1-275) with C-terminal His tag (domain or fragment)
chain: KYALADPSLKMADPNRFRGKNLPVLDQLTDPPGVKRVYHIQPSLEDPFQPPSIPITVYYAVLERACRSVLLHAPSEAPQIVRGASDEARKHTYNLTIAWYRMGDNCAIPITVMEYTECPYNKSLGVCPIRTQPRWSYYDSFSAVSEDNLGFLMHAPAFETAGTYLRLVKINDWTEITQFILEHRARASCKYALPLRIPPAACLTSKAYQQGVTVDSIGMLPRFIPENQRTVALYSLKIAGWHGPKPPYTSTLLPPELSDTTNATQPELVPEDPED
B2: HSV-1 gD (aa1-275) with C-terminal His tag (domain or fragment)
chain: KYALADASLKMADPNRFRGKDLPVLDQLTDPPGVRRVYHIQAGLPDPFQPPSLPITVYYAVLERACRSVLLNAPSEAPQIVRGASEDVRKQPYNLTIAWFRMGGNCAIPITVMEYTECSYNKSLGACPIRTQPRWNYYDSFSAVSEDNLGFLMHAPAFETAGTYLRLVKINDWTEITQFILEHRAKGSCKYALPLRIPPSACLSPQAYQQGVTVDSIGMLPRFIPENQRTVAVYSLKIAGWHGPKAPYTSTLLPPELSETPNATQPELAPEDPED

Key:
Nb14-Fc = Nb14-Fc (camel); experiment: SPR
Nb32-Fc = Nb32-Fc (camel); experiment: SPR

Binder | Kd (Nb14-Fc) [pM] | Kd (Nb32-Fc) [pM]
B1 | 83.1 | 43.4
B2 | 1140 | 36.7
